Test results published in patent US20210206877A1 (Genentech, published 2021).
Like-named read-outs stand apart in the source and are kept apart here.

Assays:
Experiment in all cases: cell-based or functional assay
[1] = molecular target: T1, BACE1 endogenous to primary cortical neurons from E16.5 CD1 mice (mouse, UniProt P56818 46-501)
[2] = molecular target: BACE1 ECD (as used in the enzyme activity assay) (UniProt P56817 22-457, limits assumed)
human BACE1 ECD = human BACE1 ECD (human, UniProt P56817)
human BACE1 ECD, sequence (P56817 22-457): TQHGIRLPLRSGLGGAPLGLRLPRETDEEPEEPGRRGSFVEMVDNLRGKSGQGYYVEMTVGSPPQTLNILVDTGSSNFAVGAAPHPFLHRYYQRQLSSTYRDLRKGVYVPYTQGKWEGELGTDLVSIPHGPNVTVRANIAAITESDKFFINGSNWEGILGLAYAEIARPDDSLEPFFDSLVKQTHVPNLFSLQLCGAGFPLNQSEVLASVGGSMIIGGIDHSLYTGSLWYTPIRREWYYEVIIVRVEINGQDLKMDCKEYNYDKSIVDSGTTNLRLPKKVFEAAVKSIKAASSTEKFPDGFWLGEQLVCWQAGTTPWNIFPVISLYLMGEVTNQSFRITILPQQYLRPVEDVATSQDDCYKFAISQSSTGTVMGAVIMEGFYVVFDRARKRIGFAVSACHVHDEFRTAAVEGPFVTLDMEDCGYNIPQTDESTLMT

murine BACE1 ECD = molecular target: murine BACE1 ECD
murine BACE1 ECD, sequence (single chain, as listed by the source limits assumed): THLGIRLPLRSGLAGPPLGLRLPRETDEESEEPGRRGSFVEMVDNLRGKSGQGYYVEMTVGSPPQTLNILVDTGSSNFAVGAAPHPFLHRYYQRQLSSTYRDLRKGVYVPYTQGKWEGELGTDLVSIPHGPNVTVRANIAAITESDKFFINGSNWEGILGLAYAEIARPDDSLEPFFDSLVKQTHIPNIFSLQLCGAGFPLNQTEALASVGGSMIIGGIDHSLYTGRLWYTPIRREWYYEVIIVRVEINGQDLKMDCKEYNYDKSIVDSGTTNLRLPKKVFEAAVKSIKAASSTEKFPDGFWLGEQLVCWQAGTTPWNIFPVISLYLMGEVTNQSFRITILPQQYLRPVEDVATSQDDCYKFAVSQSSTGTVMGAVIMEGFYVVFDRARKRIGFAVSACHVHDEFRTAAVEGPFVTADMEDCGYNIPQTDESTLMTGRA

[3] = molecular target: T1, BACE1 endogenous to primary cortical …; remark: listed apart in the source
Throughout, for % inhibition, FRET short substrate assay (negative = activation): test concentration or dose not given here.

BACE1 ECD (as used in the enzyme activity assay), sequence (P56817 22-457 limits assumed): as the sequence (P56817 22-457) above
T1 sequence (P56818 46-501): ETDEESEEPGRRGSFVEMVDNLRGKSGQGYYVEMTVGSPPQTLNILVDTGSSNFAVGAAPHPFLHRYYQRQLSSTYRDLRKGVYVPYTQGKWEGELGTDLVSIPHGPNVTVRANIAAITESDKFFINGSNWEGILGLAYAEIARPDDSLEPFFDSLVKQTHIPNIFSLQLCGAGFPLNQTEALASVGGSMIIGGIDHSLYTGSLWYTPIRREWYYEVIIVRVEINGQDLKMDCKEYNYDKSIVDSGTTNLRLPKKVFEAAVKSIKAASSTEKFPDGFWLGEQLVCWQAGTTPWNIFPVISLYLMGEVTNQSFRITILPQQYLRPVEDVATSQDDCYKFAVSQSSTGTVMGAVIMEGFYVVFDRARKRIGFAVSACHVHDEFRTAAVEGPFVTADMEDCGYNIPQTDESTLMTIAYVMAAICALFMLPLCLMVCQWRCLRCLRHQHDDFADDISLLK

B1: 5896 (antibody, V domains shown)
VH: QLQLQESGPGLVKPSETLSLTCTVSGGSISSSSYYWGWIRQPPGKGLEWIGSIYRSGSTYYNPSLKSRVTISVDTSKNQFSLKLSSVTAADTAVYYCARVGHGISYFDLWGRGTLVTVSS
VL: EIVLTQSPATLSLSPGERATLSCRASQSVSSYLAWYQQKPGQAPRLLIYDASNRATGIPARFSGSGSGTDFTLTISSLEPEDFAVYYCQQSLTWPPRTFGGGTKVEIK
B1 was tested, and the “IC50, Abeta x-40 in mouse cortical neurons (row 5896*, second run)” value [1] was 5.72 nM, the “max % inhibition, Abeta x-40 in mouse cortical neurons” value (“max % inhibition” below) [1] was 65% and the “EC50, FRET short substrate assay” value [2] was 3.35 nM. The “EC50, HTRF long substrate assay” value [2] was 3.46 nM, the “% inhibition, FRET short substrate assay (negative = activation)” value (from here on “% inhibition, FRET short substrate assay”) (human BACE1 ECD) was -4% and the “% inhibition, FRET short substrate assay” value (murine BACE1 ECD) was -3%.

B2: 5897 (antibody, V domains shown)
VH: QLQLQESGPGLVKPSETLSLTCTVSGGSISWSSYYWSWIRQPPGKGLEWIGSIYKSGRTYYNPSLKSRVTISVDTSKNQFSLKLSSVTAADTAVYYCARVGHGISYFDLWGRGTLVTVSS
VL: EIVLTQSPATLSLSPGERATLSCRASQSVSSYLAWYQQKPGQAPRLLIYDASNRATGIPARFSGSGSGTDFTLTISSLEPEDFAVYYCQQSLTWPPRTFGGGTKVEIK
For B2, the “max % inhibition” value [1] was 62%, the “EC50, FRET short substrate assay” value [2] was 0.528 nM and the “EC50, HTRF long substrate assay” value [2] was 1.39 nM. For the same binder, the “% inhibition, FRET short substrate assay” value (human BACE1 ECD) was 1% and the “% inhibition, FRET short substrate assay” value (murine BACE1 ECD) was -3%.

B3: 6308 (antibody, V domains shown)
VH: QLQLQESGPGLVKPSETLSLTCTVSGGSISWSSYYWSWIRQPPGKGLEWIGSIYRSGRTYYNPSLKSRVTISVDTSKNQFSLKLSSVTAADTAVYYCARVGHGINYFDLWGRGTLVTVSS
VL: EIVLTQSPATLSLSPGERATLSCRASQSVSSYLAWYQQKPGQAPRLLIYDASKRATGIPARFSGSGSGTDFTLTISSLEPEDFAVYYCQQSLVWPPRTFGGGTKVEIK
For B3, the “max % inhibition” value [3] was 60%.

B4: 6307 (antibody, V domains shown)
VH: QLQLQESGPGLVKPSETLSLTCTVSGGSISWSSYYWSWIRQPPGKGLEWIGSIYRSGRTYYNPSLKGRVTISVDTSKNQFSLKLSSVTAADTAVYYCARVGHGINYFDLWGRGTLVTVSS
VL: EIVLTQSPATLSLSPGERATLSCRASQSVSSYLAWYQQKPGQAPRLLIYDASNRATGIPARFSGSGSGTDFTLTISSLEPEDFAVYYCQQSIVWPPRTFGGGTKVEIK
With B4 the “max % inhibition” value [3] was 68%.

B5: 6313 (antibody, V domains shown)
VH: QLQLQESGPGLVKPSETLSLTCTVSGGSISRGSYYWGWIRQPPGKGLEWIGMIYYSGSTWYNPSLKSRVTISVDTSKNQFSLKLSSVTAADTAVYYCARVGHGVSYFDLWGRGTLVTVSS
VL: EIVLTQSPATLSLSPGERATLSCRASQSVSSYLAWYQQKPGQAPRLLIYDASNRATGIPARFSGSGSGTDFTLTISSLEPEDFAVYYCQQAYVWPPRTFGGGTKVEIK
B5 was tested, and the “max % inhibition” value [3] was 67%.

B6: 6309 (antibody, V domains shown)
VH: QLQLQESGPGLVKPSETLSLTCTVSGGSISWSSYYWSWIRQPPGKGLEWIGSIYRSGRTYYNPSLKSRVTISVDTSKNQFSLKLSSVTAADTAVYYCARVGHGINYFDLWGRGTLVTVSS
VL: EIVLTQSPATLSLSPGERATLSCRASQSVSSYLAWYQQKPGQAPRLLIYDASNRATGIPARFSGSGSGTDFTLTISSLEPEDFAVYYCQQSITWPPRTFGGGTKVEIK
In the case of B6, the “max % inhibition” value [3] is reported as 60%.

B7: 6310 (antibody, V domains shown)
VH: QLQLQESGPGLVKPSETLSLTCTVSGGSISWSSYYWSWIRQPPGKGLEWIGSIYRSGRTYYNPSLKSRVTISVDTSKNQFSLKLSSVTAADTAVYYCARVGHGINYFDLWGRGTLVTVSS
VL: EIVLTQSPATLSLSPGERATLSCRASQSVSSYLAWYQQKPGQAPRLLIYDASNRATGIPARFSGSGSGTDFTLTISSLEPEDFAVYYCQQSVTWPPRTFGGGTKVEIK
With B7 the “max % inhibition” value [3] was 71%.

B8: 6311 (antibody, V domains shown)
VH: QLQLQESGPGLVKPSETLSLTCTVSGGSISWSSYYWSWIRQPPGKGLEWIGSIYRSGRTYYNPSLKSRVTISVDTSKNQFSLKLSSVTAADTAVYYCARVGHGINYFDLWGRGTLVTVSS
VL: EIVLTQSPATLSLSPGERATLSCRASQSVSSYLAWYQQKPGQAPRLLIYDASNRATGIPARFSGSGSGTDFTLTISSLEPEDFAVYYCQQSLTWPPRTFGGGTKVEIK
B8 was tested, and the “max % inhibition” value [3] was 63%.

B9: 5893 (antibody, V domains shown)
VH: QVQLVQSGAEVKKPGSSVKVSCKASGGTFRGYAISWVRQAPGQGLEWMGNIIPGFGTANYAQKFQGRVTITADESTSTAYMELSSLRSEDTAVYYCARSGGTKYGMLDVWGQGTMVTVSS
VL: EIVMTQSPATLSVSPGERATLSCRASQSVGSNLAWYQQKPGQAPRLLIYGASTRATGIPARFSGSGSGTEFTLTISSLQSEDFAVYYCQQLYTWPPRTFGGGTKVEIK
B9 was tested, and the “max % inhibition” value [1] was 73%, the “EC50, FRET short substrate assay” value [2] was 8.84 nM and the “EC50, HTRF long substrate assay” value [2] was 3.59 nM. For the same binder, the “% inhibition, FRET short substrate assay” value (human BACE1 ECD) was 72% and the “% inhibition, FRET short substrate assay” value (murine BACE1 ECD) was 69%.

B10: 6300 (antibody, V domains shown)
VH: QVQLVQSGAEVKKPGSSVKVSCKASGGTLSGYAISWVRQAPGQGLEWMGNIIPGFGTANYAQKSQGRVTITADESTSTAYMELSSLRSEDTAVYYCARSGGTRYGMLDVWGQGTMVTVSS
VL: EIVLTQSPATLSVSPGERATLSCRASQSVGSNLAWYQQKPGQAPRLLIYGASTRATGIPARFSGSGSGTEFTLTISSLQSEDFAVYYCQQSFLWPPRTFGGGTKVEIK
B10 was tested, and the “max % inhibition” value [3] was 71%.

B11: 6303 (antibody, V domains shown)
VH: QVQLVQSGAEVKKPGSSVKVSCKASGGTLSGYAISWVRQAPGQGLEWMGNIIPGFGTANYAQKSQGRVTITADESTSTAYMELSSLRSEDTAVYYCARSGGTRYGMLDVWGQGTMVTVSS
VL: EIVMTQSPATLSVSPGERATLSCRASQSVSSNLAWYQQKPGQAPRLLIFGASTRATGIPARFSGSGSGTEFTLTISSLQSEDFAVYYCQQLLTWPPRTFGGGTKVEIK
In the case of B11, the “max % inhibition” value [3] is reported as 76%.

B12: 6299 (antibody, V domains shown)
VH: QVQLVQSGAEVKKPGSSVKVSCKASGGTLSGYAISWVRQAPGQGLEWMGNIIPGFGTANYAQKSQGRVTITADESTSTAYMELSSLRSEDTAVYYCARSGGTRYGMLDVWGQGTMVTVSS
VL: EIVMTQSPATLSVSPGERATLSCRASQSVGSNLAWYQQKPGQAPRLLIYGASTRATGIPARFSGSGSGTEFTLTISSLQSEDFAVYYCQQSYLWPPRTFGGGTKVEIK
For B12, the “max % inhibition” value [3] was 70%.

B13: 6305 (antibody, V domains shown)
VH: QVQLVQSGAEVKKPGSSVKVSCKASGGTLSGYAISWVRQAPGQGLEWMGNIIPGFGTANYAQKSQGRVTITADESTSTAYMELSSLRSEDTAVYYCARSGGTRYGMLDVWGQGTMVTVSS
VL: EIVLTQSPATLSVSPGERATLSCRASQSVGSNLAWYQQKPGQAPRLLIYGASTRATGIPARFSGSGSGTEFTLTISSLQSEDFAVYYCQQSFVWPPRTFGGGTKVEIK
In the case of B13, the “max % inhibition” value [3] is reported as 67%.
